The source of these data is PMC7610778 (Science (New York, N.Y.), 2020).

Data set [1] concerns the molecule itself.
Data set [2] deals with T1, mCherry-Atg11 (yeast (S. cerevisiae), UniProt Q12527 1-1178).
T1 sequence: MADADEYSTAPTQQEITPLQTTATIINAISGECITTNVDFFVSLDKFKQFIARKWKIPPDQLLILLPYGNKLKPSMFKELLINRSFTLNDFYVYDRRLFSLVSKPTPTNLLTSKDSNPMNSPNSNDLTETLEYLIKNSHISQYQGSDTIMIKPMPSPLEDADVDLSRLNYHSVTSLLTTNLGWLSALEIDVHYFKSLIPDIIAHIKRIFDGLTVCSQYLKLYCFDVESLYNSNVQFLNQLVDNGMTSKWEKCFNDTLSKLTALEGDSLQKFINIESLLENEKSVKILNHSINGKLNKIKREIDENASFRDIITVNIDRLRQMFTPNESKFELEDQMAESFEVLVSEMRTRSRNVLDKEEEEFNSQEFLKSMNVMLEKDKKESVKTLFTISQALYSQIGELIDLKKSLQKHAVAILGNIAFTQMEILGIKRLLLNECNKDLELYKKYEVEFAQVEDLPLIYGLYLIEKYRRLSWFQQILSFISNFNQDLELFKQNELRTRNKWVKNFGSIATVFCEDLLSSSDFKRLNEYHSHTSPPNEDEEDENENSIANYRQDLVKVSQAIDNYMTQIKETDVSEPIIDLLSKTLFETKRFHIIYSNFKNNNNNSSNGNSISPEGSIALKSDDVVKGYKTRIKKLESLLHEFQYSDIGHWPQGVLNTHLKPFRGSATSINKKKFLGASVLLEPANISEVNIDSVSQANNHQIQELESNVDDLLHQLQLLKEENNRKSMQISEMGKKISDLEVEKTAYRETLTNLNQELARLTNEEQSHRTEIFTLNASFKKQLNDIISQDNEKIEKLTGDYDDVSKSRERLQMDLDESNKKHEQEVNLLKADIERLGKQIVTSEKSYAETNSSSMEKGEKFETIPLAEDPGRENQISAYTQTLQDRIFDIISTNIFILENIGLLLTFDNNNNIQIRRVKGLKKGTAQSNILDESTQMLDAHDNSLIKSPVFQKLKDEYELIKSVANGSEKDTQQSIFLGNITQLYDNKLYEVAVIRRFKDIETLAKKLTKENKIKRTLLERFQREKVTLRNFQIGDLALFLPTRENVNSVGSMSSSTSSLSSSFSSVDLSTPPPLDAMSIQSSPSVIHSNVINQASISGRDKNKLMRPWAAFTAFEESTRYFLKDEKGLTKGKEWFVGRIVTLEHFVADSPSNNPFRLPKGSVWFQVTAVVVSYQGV
Nature of the data set: pull-down.

The target in data set [3] is T2, Atg12–Atg5-Atg16-mCherry complex (yeast (S. cerevisiae), UniProt P38316;Q12380;Q03818, Atg12–Atg5 conjugate | Atg12–Atg5 conjugate).
T2 sequence 1: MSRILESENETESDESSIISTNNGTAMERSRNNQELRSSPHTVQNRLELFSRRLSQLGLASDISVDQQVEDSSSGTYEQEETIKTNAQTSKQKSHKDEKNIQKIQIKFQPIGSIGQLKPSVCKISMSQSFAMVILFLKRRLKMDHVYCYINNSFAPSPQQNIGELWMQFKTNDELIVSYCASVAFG
T2 sequence 2: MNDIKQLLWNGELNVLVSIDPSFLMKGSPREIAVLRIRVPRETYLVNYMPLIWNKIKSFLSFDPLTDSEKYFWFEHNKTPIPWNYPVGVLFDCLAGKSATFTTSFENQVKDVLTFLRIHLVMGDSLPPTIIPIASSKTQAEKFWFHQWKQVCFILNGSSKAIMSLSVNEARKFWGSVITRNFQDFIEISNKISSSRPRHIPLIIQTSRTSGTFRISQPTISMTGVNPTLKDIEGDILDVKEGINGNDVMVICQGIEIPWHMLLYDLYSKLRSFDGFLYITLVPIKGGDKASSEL
T2 sequence 3: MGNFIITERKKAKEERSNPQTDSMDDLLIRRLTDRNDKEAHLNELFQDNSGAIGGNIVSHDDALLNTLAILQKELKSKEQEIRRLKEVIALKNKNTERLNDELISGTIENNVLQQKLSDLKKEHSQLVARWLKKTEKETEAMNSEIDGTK
Nature of the data set: membrane recruitment to GUVs imaged by microscopy.

The target in data set [4] is Atg2-Atg18-CBP complex (yeast (S. cerevisiae), UniProt P53855;P43601). Kind of data set: pull-down.
In data set [5] the target is Atg2-mEGFP (yeast (S. cerevisiae), UniProt P53855 1-1592). Kind of data set: pull-down.
Chain of Atg2-mEGFP (P53855 whole entry): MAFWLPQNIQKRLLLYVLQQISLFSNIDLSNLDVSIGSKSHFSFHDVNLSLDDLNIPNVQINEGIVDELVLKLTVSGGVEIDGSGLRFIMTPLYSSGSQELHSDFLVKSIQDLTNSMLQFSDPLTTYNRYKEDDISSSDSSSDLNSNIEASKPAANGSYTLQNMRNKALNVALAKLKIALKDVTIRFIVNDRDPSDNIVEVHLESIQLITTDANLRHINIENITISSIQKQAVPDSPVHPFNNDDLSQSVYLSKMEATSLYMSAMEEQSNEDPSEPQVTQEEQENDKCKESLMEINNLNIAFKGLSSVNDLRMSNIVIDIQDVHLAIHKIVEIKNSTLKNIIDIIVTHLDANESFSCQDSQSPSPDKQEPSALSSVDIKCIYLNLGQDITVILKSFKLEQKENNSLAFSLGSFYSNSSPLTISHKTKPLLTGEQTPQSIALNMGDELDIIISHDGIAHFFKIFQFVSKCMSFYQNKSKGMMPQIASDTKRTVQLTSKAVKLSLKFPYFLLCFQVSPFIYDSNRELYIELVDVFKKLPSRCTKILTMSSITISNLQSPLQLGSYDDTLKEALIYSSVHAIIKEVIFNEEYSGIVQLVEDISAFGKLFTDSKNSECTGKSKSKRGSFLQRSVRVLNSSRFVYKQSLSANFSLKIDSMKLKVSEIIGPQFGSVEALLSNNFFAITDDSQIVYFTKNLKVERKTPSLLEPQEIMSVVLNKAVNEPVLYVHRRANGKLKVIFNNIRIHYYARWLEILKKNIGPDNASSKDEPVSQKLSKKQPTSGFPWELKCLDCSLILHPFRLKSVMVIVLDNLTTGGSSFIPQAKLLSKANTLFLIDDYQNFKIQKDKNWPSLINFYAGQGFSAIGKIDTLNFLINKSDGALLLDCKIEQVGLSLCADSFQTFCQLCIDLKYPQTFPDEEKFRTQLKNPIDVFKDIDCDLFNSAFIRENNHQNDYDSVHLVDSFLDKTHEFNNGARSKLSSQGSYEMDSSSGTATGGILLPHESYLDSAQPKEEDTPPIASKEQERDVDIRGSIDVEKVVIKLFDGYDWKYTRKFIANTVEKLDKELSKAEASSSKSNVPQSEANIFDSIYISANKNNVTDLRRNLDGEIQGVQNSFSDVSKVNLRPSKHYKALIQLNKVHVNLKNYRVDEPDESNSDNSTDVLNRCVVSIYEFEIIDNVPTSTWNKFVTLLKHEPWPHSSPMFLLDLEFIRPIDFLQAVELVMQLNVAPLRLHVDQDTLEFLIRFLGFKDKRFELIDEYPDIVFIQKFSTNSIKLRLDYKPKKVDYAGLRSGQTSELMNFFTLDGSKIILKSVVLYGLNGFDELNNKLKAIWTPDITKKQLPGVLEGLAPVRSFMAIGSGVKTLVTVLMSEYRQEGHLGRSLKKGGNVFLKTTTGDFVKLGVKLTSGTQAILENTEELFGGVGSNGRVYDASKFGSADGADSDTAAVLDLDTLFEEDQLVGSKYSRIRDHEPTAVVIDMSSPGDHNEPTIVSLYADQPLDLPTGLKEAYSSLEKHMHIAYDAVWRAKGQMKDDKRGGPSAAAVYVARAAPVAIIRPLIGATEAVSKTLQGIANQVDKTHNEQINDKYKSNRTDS

Chain of Atg2-Atg18-CBP complex (P53855 whole entry, chain 1 of 2): as the sequence (P53855 whole entry) above
Chain of Atg2-Atg18-CBP complex (P43601 whole entry, chain 2 of 2): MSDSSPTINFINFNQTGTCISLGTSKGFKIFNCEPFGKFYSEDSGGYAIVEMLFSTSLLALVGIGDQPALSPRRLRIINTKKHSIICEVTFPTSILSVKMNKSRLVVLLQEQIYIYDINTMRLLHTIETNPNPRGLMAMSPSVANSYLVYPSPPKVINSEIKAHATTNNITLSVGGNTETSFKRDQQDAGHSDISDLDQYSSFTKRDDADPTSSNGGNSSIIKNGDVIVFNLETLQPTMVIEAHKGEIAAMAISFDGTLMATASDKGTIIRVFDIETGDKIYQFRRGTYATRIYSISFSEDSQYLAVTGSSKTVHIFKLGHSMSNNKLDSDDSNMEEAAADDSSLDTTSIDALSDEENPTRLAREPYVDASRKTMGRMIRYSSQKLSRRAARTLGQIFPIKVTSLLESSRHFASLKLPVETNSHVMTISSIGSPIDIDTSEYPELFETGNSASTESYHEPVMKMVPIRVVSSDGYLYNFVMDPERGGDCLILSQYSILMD

B1: Atg11 (full length; fluorescent tag of this experiment not told) (natural protein)
chain: MADADEYSTAPTQQEITPLQTTATIINAISGECITTNVDFFVSLDKFKQFIARKWKIPPDQLLILLPYGNKLKPSMFKELLINRSFTLNDFYVYDRRLFSLVSKPTPTNLLTSKDSNPMNSPNSNDLTETLEYLIKNSHISQYQGSDTIMIKPMPSPLEDADVDLSRLNYHSVTSLLTTNLGWLSALEIDVHYFKSLIPDIIAHIKRIFDGLTVCSQYLKLYCFDVESLYNSNVQFLNQLVDNGMTSKWEKCFNDTLSKLTALEGDSLQKFINIESLLENEKSVKILNHSINGKLNKIKREIDENASFRDIITVNIDRLRQMFTPNESKFELEDQMAESFEVLVSEMRTRSRNVLDKEEEEFNSQEFLKSMNVMLEKDKKESVKTLFTISQALYSQIGELIDLKKSLQKHAVAILGNIAFTQMEILGIKRLLLNECNKDLELYKKYEVEFAQVEDLPLIYGLYLIEKYRRLSWFQQILSFISNFNQDLELFKQNELRTRNKWVKNFGSIATVFCEDLLSSSDFKRLNEYHSHTSPPNEDEEDENENSIANYRQDLVKVSQAIDNYMTQIKETDVSEPIIDLLSKTLFETKRFHIIYSNFKNNNNNSSNGNSISPEGSIALKSDDVVKGYKTRIKKLESLLHEFQYSDIGHWPQGVLNTHLKPFRGSATSINKKKFLGASVLLEPANISEVNIDSVSQANNHQIQELESNVDDLLHQLQLLKEENNRKSMQISEMGKKISDLEVEKTAYRETLTNLNQELARLTNEEQSHRTEIFTLNASFKKQLNDIISQDNEKIEKLTGDYDDVSKSRERLQMDLDESNKKHEQEVNLLKADIERLGKQIVTSEKSYAETNSSSMEKGEKFETIPLAEDPGRENQISAYTQTLQDRIFDIISTNIFILENIGLLLTFDNNNNIQIRRVKGLKKGTAQSNILDESTQMLDAHDNSLIKSPVFQKLKDEYELIKSVANGSEKDTQQSIFLGNITQLYDNKLYEVAVIRRFKDIETLAKKLTKENKIKRTLLERFQREKVTLRNFQIGDLALFLPTRENVNSVGSMSSSTSSLSSSFSSVDLSTPPPLDAMSIQSSPSVIHSNVINQASISGRDKNKLMRPWAAFTAFEESTRYFLKDEKGLTKGKEWFVGRIVTLEHFVADSPSNNPFRLPKGSVWFQVTAVVVSYQGV
Usually stoichiometry N stands for the number of molecules, sites or subunits per partner or assembly. For B1, the “stoichiometry N” value in data set [1] stood at 2.

B2: Atg19-3D (S390D, S391D, S396D) (natural protein)
chain: MNNSKTNQQMNTSMGYPLTVYDECNKFQLIVPTLDANIMLWCIGQLSLLNDSNGCKHLFWQPNDKSNVRILLNNYDYGHLFKYLQCQRKCSVYIGEGTLKKYNLTISTSFDNFLDLTPSEEKESLCREDAHEDPVSPKAGSEEEISPNSTSNVVVSRECLDNFMKQLLKLEESLNKLELEQKVTNKEPNHRISGTIDIPEDRSELVNFFTELKTVKQLEDVFQRYHDYERLSQECDSKTEIASDHSKKETKIEVEPPNERSLQITMNQRDNSLYFQLFNNTNSVLAGNCKLKFTDAGDKPTTQIIDMGPHEIGIKEYKEYRYFPYALDLEAGSTIEIENQYGEVIFLGKYGSSPMINLRPPSRLSAESLQASQEPFYSFQIDTLPELDDDDIISTDISLSYDGDDNEKALTWEEL
Consider B2, for which the binding result in data set [2] is “binds”.

B3: Atg9-EGFP in proteoliposomes (Atg9 PLs) (natural protein)
chain: MERDEYQLPNSHGKNTFLSRIFGLQSDEVNPSLNSQEMSNFPLPDIERGSSLLHSTNDSREDVDENDLRVPESDQGTSTEEEDEVDEEQVQAYAPQISDGLDGDHQLNSVTSKENVLETEKSNLERLVEGSTDDSVPKVGQLSSEEEEDNEFINNDGFDDDTPLFQKSKIHEFSSKKSNTIEDGKRPLFFRHILQNNRPQRDTQKLFTSSNAIHHDKDKSANNGPRNINGNQKHGTKYFGSATQPRFTGSPLNNTNRFTKLFPLRKPNLLSNISVLNNTPEDRINTLSVKERALWKWANVENLDIFLQDVYNYYLGNGFYCIILEKILNICTLLFVVFVSTYMGHCVDYSKLPTSHRVSDIIIDKCYSNSITGFTKFFLWMFYFFVILKIVQLYFDVQKLSELQNFYKYLLNISDDELQTLPWQNVIQQLMYLKDQNAMTANVVEVKAKNRIDAHDVANRIMRRENYLIALYNSDILNLSLPIPLFRTNVLTKTLEWNINLCVMGFVFNESGFIKQSILKPSQREFTREELQKRFMLAGFLNIILAPFLVTYFVLLYFFRYFNEYKTSPGSIGARQYTPIAEWKFREYNELYHIFKKRISLSTTLANKYVDQFPKEKTNLFLKFVSFICGSFVAILAFLTVFDPENFLNFEITSDRSVIFYITILGAIWSVSRNTITQEYHVFDPEETLKELYEYTHYLPKEWEGRYHKEEIKLEFCKLYNLRIVILLRELTSLMITPFVLWFSLPSSAGRIVDFFRENSEYVDGLGYVCKYAMFNMKNIDGEDTHSMDEDSLTKKIAVNGSHTLNSKRRSKFTAEDHSDKDLANNKMLQSYVYFMDDYSNSENLTGKYQLPAKKGYPNNEGDSFLNNKYSWRKQFQPGQKPELFRIGKHALGPGHNISPAIYSTRNPGKNWDNNNNGDDIKNGTNNATAKNDDNNGNNDHEYVLTESFLDSGAFPNHDVIDHNKMLNSNYNGNGILNKGGVLGLVKEYYKKSDVGR
As to B3, the binding result in data set [2] was “binds”.

B4: Atg21 (natural protein)
chain: MKVLQFNQDATCCVVAASSHQISIFNCDPFGKCFEIDTKNSKKKTSNNNGSASNSESRNNEESILITNGSRDRTDAEEEEDNEDNALVTGNILKEGEFVIEMLFSTSLIAIADRGQGLNKGKKLKIVNTKRKCTICEIVFPHEIVDVVMNRKRMCVLLESDQIFIYDISCMKPLETIDLWEDHYKRSQANSFSNASNTGTLEGDSANLNRVATNLLANATQKSVNGSNPSVRTRRNSLRSKIRPRMVLSNDDRSILCFTAYSSPKKNKPNSEALYDVVIYDTLNVTPVNYLNSVHKGNVACLAVSHDGKLLATASDKGTIIRVFHTGVDSDYMSSRSLFKEFRRGTRLCNLYQLAFDKSMTMIGCVGDTDTIHLFKLDDASNSLPGDNSSNGHWNEEEYILASNSNPSMGTPKEIPLSKPRIANYFSKKIKSSIPNQNLSRNFAYITVNESNRSCLGFPDEFPNQVYIASDDGTFSIYSIPSKPGECVLTKNNKFT
For B4, in data set [3], the binding result is reported as “binds”.

B5: Atg12–Atg5-Atg16-GFP complex (complex)
chain 1: MSRILESENETESDESSIISTNNGTAMERSRNNQELRSSPHTVQNRLELFSRRLSQLGLASDISVDQQVEDSSSGTYEQEETIKTNAQTSKQKSHKDEKNIQKIQIKFQPIGSIGQLKPSVCKISMSQSFAMVILFLKRRLKMDHVYCYINNSFAPSPQQNIGELWMQFKTNDELIVSYCASVAFG
chain 2: MNDIKQLLWNGELNVLVSIDPSFLMKGSPREIAVLRIRVPRETYLVNYMPLIWNKIKSFLSFDPLTDSEKYFWFEHNKTPIPWNYPVGVLFDCLAGKSATFTTSFENQVKDVLTFLRIHLVMGDSLPPTIIPIASSKTQAEKFWFHQWKQVCFILNGSSKAIMSLSVNEARKFWGSVITRNFQDFIEISNKISSSRPRHIPLIIQTSRTSGTFRISQPTISMTGVNPTLKDIEGDILDVKEGINGNDVMVICQGIEIPWHMLLYDLYSKLRSFDGFLYITLVPIKGGDKASSEL
chain 3: MGNFIITERKKAKEERSNPQTDSMDDLLIRRLTDRNDKEAHLNELFQDNSGAIGGNIVSHDDALLNTLAILQKELKSKEQEIRRLKEVIALKNKNTERLNDELISGTIENNVLQQKLSDLKKEHSQLVARWLKKTEKETEAMNSEIDGTK
modifications: Atg12–Atg5 conjugate | Atg12–Atg5 conjugate
In the case of B5, in data set [4], the binding result is “binds”.

B6: Atg5-mCherry-Atg16(1-46) (complex)
chain 1: MNDIKQLLWNGELNVLVSIDPSFLMKGSPREIAVLRIRVPRETYLVNYMPLIWNKIKSFLSFDPLTDSEKYFWFEHNKTPIPWNYPVGVLFDCLAGKSATFTTSFENQVKDVLTFLRIHLVMGDSLPPTIIPIASSKTQAEKFWFHQWKQVCFILNGSSKAIMSLSVNEARKFWGSVITRNFQDFIEISNKISSSRPRHIPLIIQTSRTSGTFRISQPTISMTGVNPTLKDIEGDILDVKEGINGNDVMVICQGIEIPWHMLLYDLYSKLRSFDGFLYITLVPIKGGDKASSEL
chain 2: MGNFIITERKKAKEERSNPQTDSMDDLLIRRLTDRNDKEAHLNELF
Consider B6, for which the binding result in data set [5] is “binds”.
